Laboratory results published in patent US20210388087A1.

B1: H183/L072 VH N53G (antibody, name in Kabat numbering, V domains shown)
VH: QVQLVESGGGLVQPGRSLRLSCAASGFTFSNAWMHWVRQAPGKGLEWVAQIKDKGGAYAAYYAPSVKGRFTISRDDSKNSIYLQMNSLKTEDTAVYYCHYVHYASASTVLPAFGVDAWGQGTTVTVSS
VL: DIVMTQSPLSLPVTPGEPASISCQASQELVHMNRNTYLHWYQQKPGQAPRLLIYKVSNRFPGVPDRFSGSGSGTDFTLKISRVEAEDVGVYYCAQGTSVPFTFGQGTKLEIK
B2: H183/L072 VH T28N (antibody, name in Kabat numbering, V domains shown)
VH: QVQLVESGGGLVQPGRSLRLSCAASGFNFSNAWMHWVRQAPGKGLEWVAQIKDKGNAYAAYYAPSVKGRFTISRDDSKNSIYLQMNSLKTEDTAVYYCHYVHYASASTVLPAFGVDAWGQGTTVTVSS
VL: DIVMTQSPLSLPVTPGEPASISCQASQELVHMNRNTYLHWYQQKPGQAPRLLIYKVSNRFPGVPDRFSGSGSGTDFTLKISRVEAEDVGVYYCAQGTSVPFTFGQGTKLEIK
B3: H183/L072 VH F29N (antibody, name in Kabat numbering, V domains shown)
VH: QVQLVESGGGLVQPGRSLRLSCAASGFTNSNAWMHWVRQAPGKGLEWVAQIKDKGNAYAAYYAPSVKGRFTISRDDSKNSIYLQMNSLKTEDTAVYYCHYVHYASASTVLPAFGVDAWGQGTTVTVSS
VL: DIVMTQSPLSLPVTPGEPASISCQASQELVHMNRNTYLHWYQQKPGQAPRLLIYKVSNRFPGVPDRFSGSGSGTDFTLKISRVEAEDVGVYYCAQGTSVPFTFGQGTKLEIK
B4: H183/L072 VH W33N (antibody, name in Kabat numbering, V domains shown)
VH: QVQLVESGGGLVQPGRSLRLSCAASGFTFSNANMHWVRQAPGKGLEWVAQIKDKGNAYAAYYAPSVKGRFTISRDDSKNSIYLQMNSLKTEDTAVYYCHYVHYASASTVLPAFGVDAWGQGTTVTVSS
VL: DIVMTQSPLSLPVTPGEPASISCQASQELVHMNRNTYLHWYQQKPGQAPRLLIYKVSNRFPGVPDRFSGSGSGTDFTLKISRVEAEDVGVYYCAQGTSVPFTFGQGTKLEIK
B5: H183/L072 VH M34N (antibody, name in Kabat numbering, V domains shown)
VH: QVQLVESGGGLVQPGRSLRLSCAASGFTFSNAWNHWVRQAPGKGLEWVAQIKDKGNAYAAYYAPSVKGRFTISRDDSKNSIYLQMNSLKTEDTAVYYCHYVHYASASTVLPAFGVDAWGQGTTVTVSS
VL: DIVMTQSPLSLPVTPGEPASISCQASQELVHMNRNTYLHWYQQKPGQAPRLLIYKVSNRFPGVPDRFSGSGSGTDFTLKISRVEAEDVGVYYCAQGTSVPFTFGQGTKLEIK
B6: H183/L072 VH D52aN (antibody, name in Kabat numbering, V domains shown)
VH: QVQLVESGGGLVQPGRSLRLSCAASGFTFSNAWMHWVRQAPGKGLEWVAQIKNKGNAYAAYYAPSVKGRFTISRDDSKNSIYLQMNSLKTEDTAVYYCHYVHYASASTVLPAFGVDAWGQGTTVTVSS
VL: DIVMTQSPLSLPVTPGEPASISCQASQELVHMNRNTYLHWYQQKPGQAPRLLIYKVSNRFPGVPDRFSGSGSGTDFTLKISRVEAEDVGVYYCAQGTSVPFTFGQGTKLEIK
B7: H183/L072 VH F29Q (antibody, name in Kabat numbering, V domains shown)
VH: QVQLVESGGGLVQPGRSLRLSCAASGFTQSNAWMHWVRQAPGKGLEWVAQIKDKGNAYAAYYAPSVKGRFTISRDDSKNSIYLQMNSLKTEDTAVYYCHYVHYASASTVLPAFGVDAWGQGTTVTVSS
VL: DIVMTQSPLSLPVTPGEPASISCQASQELVHMNRNTYLHWYQQKPGQAPRLLIYKVSNRFPGVPDRFSGSGSGTDFTLKISRVEAEDVGVYYCAQGTSVPFTFGQGTKLEIK
B8: H183/L072 VH W33Q (antibody, name in Kabat numbering, V domains shown)
VH: QVQLVESGGGLVQPGRSLRLSCAASGFTFSNAQMHWVRQAPGKGLEWVAQIKDKGNAYAAYYAPSVKGRFTISRDDSKNSIYLQMNSLKTEDTAVYYCHYVHYASASTVLPAFGVDAWGQGTTVTVSS
VL: DIVMTQSPLSLPVTPGEPASISCQASQELVHMNRNTYLHWYQQKPGQAPRLLIYKVSNRFPGVPDRFSGSGSGTDFTLKISRVEAEDVGVYYCAQGTSVPFTFGQGTKLEIK
B9: H183/L072 VH M34Q (antibody, name in Kabat numbering, V domains shown)
VH: QVQLVESGGGLVQPGRSLRLSCAASGFTFSNAWQHWVRQAPGKGLEWVAQIKDKGNAYAAYYAPSVKGRFTISRDDSKNSIYLQMNSLKTEDTAVYYCHYVHYASASTVLPAFGVDAWGQGTTVTVSS
VL: DIVMTQSPLSLPVTPGEPASISCQASQELVHMNRNTYLHWYQQKPGQAPRLLIYKVSNRFPGVPDRFSGSGSGTDFTLKISRVEAEDVGVYYCAQGTSVPFTFGQGTKLEIK
B10: H183/L072 VH H35Q (antibody, name in Kabat numbering, V domains shown)
VH: QVQLVESGGGLVQPGRSLRLSCAASGFTFSNAWMQWVRQAPGKGLEWVAQIKDKGNAYAAYYAPSVKGRFTISRDDSKNSIYLQMNSLKTEDTAVYYCHYVHYASASTVLPAFGVDAWGQGTTVTVSS
VL: DIVMTQSPLSLPVTPGEPASISCQASQELVHMNRNTYLHWYQQKPGQAPRLLIYKVSNRFPGVPDRFSGSGSGTDFTLKISRVEAEDVGVYYCAQGTSVPFTFGQGTKLEIK
B11: H183/L072 VH I51Q (antibody, name in Kabat numbering, V domains shown)
VH: QVQLVESGGGLVQPGRSLRLSCAASGFTFSNAWMHWVRQAPGKGLEWVAQQKDKGNAYAAYYAPSVKGRFTISRDDSKNSIYLQMNSLKTEDTAVYYCHYVHYASASTVLPAFGVDAWGQGTTVTVSS
VL: DIVMTQSPLSLPVTPGEPASISCQASQELVHMNRNTYLHWYQQKPGQAPRLLIYKVSNRFPGVPDRFSGSGSGTDFTLKISRVEAEDVGVYYCAQGTSVPFTFGQGTKLEIK
B12: H183/L072 VH D52aQ (antibody, name in Kabat numbering, V domains shown)
VH: QVQLVESGGGLVQPGRSLRLSCAASGFTFSNAWMHWVRQAPGKGLEWVAQIKQKGNAYAAYYAPSVKGRFTISRDDSKNSIYLQMNSLKTEDTAVYYCHYVHYASASTVLPAFGVDAWGQGTTVTVSS
VL: DIVMTQSPLSLPVTPGEPASISCQASQELVHMNRNTYLHWYQQKPGQAPRLLIYKVSNRFPGVPDRFSGSGSGTDFTLKISRVEAEDVGVYYCAQGTSVPFTFGQGTKLEIK
B13: H183/L072 VH N53Q (antibody, name in Kabat numbering, V domains shown)
VH: QVQLVESGGGLVQPGRSLRLSCAASGFTFSNAWMHWVRQAPGKGLEWVAQIKDKGQAYAAYYAPSVKGRFTISRDDSKNSIYLQMNSLKTEDTAVYYCHYVHYASASTVLPAFGVDAWGQGTTVTVSS
VL: DIVMTQSPLSLPVTPGEPASISCQASQELVHMNRNTYLHWYQQKPGQAPRLLIYKVSNRFPGVPDRFSGSGSGTDFTLKISRVEAEDVGVYYCAQGTSVPFTFGQGTKLEIK
B14: H183/L072 VH T28S (antibody, name in Kabat numbering, V domains shown)
VH: QVQLVESGGGLVQPGRSLRLSCAASGFSFSNAWMHWVRQAPGKGLEWVAQIKDKGNAYAAYYAPSVKGRFTISRDDSKNSIYLQMNSLKTEDTAVYYCHYVHYASASTVLPAFGVDAWGQGTTVTVSS
VL: DIVMTQSPLSLPVTPGEPASISCQASQELVHMNRNTYLHWYQQKPGQAPRLLIYKVSNRFPGVPDRFSGSGSGTDFTLKISRVEAEDVGVYYCAQGTSVPFTFGQGTKLEIK
B15: H183/L072 VH F29S (antibody, name in Kabat numbering, V domains shown)
VH: QVQLVESGGGLVQPGRSLRLSCAASGFTSSNAWMHWVRQAPGKGLEWVAQIKDKGNAYAAYYAPSVKGRFTISRDDSKNSIYLQMNSLKTEDTAVYYCHYVHYASASTVLPAFGVDAWGQGTTVTVSS
VL: DIVMTQSPLSLPVTPGEPASISCQASQELVHMNRNTYLHWYQQKPGQAPRLLIYKVSNRFPGVPDRFSGSGSGTDFTLKISRVEAEDVGVYYCAQGTSVPFTFGQGTKLEIK

Biological target: Human CD137 ECD (human)
Experiment: single mutant vs template dBBDu183H

Sequence of Human CD137 ECD (human) (chain, as listed by the source limits assumed): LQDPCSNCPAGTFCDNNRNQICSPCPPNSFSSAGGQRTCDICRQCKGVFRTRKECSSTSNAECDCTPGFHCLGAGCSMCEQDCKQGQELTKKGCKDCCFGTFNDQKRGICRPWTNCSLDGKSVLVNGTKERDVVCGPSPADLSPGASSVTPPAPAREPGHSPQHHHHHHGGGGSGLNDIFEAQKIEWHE

Fold change of affinity, 0 fold:
B1, B2, B3, B4, B5, B6, B7, B8, B9, B10, B11, B12, B13, B14, B15
